Measurements as given in publication PMC11371216, “Structural insight into the DNMT1 reaction cycle by cryo-electron microscopy”.

Biological target: DNMT1 (human, UniProt P26358 1-1616)
Assay: EMSA; SAM 20-fold excess + GSK3852279B 5-fold excess; no substantial change in binding; EMSA: 25 mM Tris-HCl pH 7.5, 40 mM NaCl, 20% glycerol, 1 mM DTT, 0.5 mM MgCl2, overnight at room temperature; covalent assay: 25 mM Tris-HCl pH 7.5, 20 mM KCl
Conditions: protein: recombinant; tags: N-terminal Flag-6xHis-TEV site; blunt

Chain of DNMT1 (P26358 whole entry): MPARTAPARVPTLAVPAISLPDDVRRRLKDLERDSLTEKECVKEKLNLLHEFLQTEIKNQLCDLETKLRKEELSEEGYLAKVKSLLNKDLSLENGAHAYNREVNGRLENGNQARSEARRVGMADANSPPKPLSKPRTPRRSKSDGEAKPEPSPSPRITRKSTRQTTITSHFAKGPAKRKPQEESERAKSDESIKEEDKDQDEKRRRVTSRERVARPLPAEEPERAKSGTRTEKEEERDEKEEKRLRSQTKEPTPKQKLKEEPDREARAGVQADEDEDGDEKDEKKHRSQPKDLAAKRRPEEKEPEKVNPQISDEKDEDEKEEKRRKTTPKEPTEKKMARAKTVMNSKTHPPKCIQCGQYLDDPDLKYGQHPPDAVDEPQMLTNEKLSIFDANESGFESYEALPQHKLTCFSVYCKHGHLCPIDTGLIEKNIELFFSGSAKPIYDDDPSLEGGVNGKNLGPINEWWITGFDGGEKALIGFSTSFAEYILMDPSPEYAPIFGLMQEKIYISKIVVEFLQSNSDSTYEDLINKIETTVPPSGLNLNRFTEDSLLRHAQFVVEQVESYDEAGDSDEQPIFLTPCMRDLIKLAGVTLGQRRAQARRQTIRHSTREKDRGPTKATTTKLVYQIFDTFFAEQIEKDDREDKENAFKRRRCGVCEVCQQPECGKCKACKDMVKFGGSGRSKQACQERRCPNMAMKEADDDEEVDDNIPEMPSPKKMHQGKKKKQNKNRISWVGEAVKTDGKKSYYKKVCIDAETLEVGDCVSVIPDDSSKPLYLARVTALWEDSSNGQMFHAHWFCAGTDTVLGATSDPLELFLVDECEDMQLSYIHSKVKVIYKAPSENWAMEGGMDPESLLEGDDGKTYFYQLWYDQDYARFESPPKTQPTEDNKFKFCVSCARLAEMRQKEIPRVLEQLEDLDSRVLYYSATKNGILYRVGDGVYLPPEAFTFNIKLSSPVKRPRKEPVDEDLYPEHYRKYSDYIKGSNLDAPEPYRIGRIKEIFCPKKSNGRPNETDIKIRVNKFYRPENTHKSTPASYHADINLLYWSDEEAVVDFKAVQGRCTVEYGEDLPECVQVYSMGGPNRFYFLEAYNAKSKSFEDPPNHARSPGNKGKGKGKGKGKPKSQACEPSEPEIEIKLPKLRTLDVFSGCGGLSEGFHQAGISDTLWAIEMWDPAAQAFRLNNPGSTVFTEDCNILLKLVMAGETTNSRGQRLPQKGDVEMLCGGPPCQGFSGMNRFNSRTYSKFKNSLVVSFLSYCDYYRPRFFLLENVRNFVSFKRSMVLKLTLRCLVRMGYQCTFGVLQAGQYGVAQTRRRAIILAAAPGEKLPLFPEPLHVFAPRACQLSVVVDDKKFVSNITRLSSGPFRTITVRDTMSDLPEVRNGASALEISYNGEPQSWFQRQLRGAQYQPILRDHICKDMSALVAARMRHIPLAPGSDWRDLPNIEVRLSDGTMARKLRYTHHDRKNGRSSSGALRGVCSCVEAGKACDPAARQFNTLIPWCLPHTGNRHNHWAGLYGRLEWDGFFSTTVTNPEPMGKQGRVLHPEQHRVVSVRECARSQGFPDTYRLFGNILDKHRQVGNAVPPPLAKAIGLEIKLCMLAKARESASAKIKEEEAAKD

B1: 26 bp hemi-methylated DNA (dsDNA)
DNA 1: TGGAGTCGAGGCCGCCTGCGCAGGAC
DNA 2: GTCCTGCGCAGGCGGCCTCGACTCCA
modifications: 5-methyl-dC at position 13 of strand 1
B1: binds.
